Results: patent US20200131263A1

Molecular target: cynomolgus GITR (cyno-GITR) (cynomolgus)
Test: ELISA, cyno GITR coated at 1 ug/ml

EC50: 0.269 nM
Substance: reference antibody BMAB (Merck's MK-4166 antibody)
